Assays:
[1] = mucous adhesive property by SPECT/CT imaging after intranasal injection; conditions: 123I-labeled, mice, imaging at 1, 6 and 12 hours
Procedure: The selected eluate fraction was diluted with PBS to a final concentration of 500 μg/ml in view of ^123I-activity to be injected per mouse.
The amount of sample injected for SPECT/CT imaging was such that the sample would have a ^123I-activity of about 200 μCi or more in 40 μl upon nasal administration. 40 μl of a sample was injected into each mouse using a tip for nasal administration, and at 1, 6 and 12 hours after injection, SPECT/CT imaging was started. SPECT/CT imaging was performed for about 1 hour, in which CT imaging was performed for 10 minutes, followed by SPECT imaging for 50 minutes. Because the amount of sample injected intranasally is limited to 40 μl or less, the concentration of the sample is necessarily required to ensure ^123I-activity for imaging. ^123I-labeled nanomicelles were centrifuged, filtered (Ultracel, 10 kDa) and concentrated, thereby ensuring activity required for imaging per 40 μl. The sample was injected into both nasal cavities alternately at intervals of a few minutes depending on the size and condition of the mouse.

[2] = immunohistofluorescence imaging after intranasal injection of FITC-labeled OVA; conditions: mice

B1: OVA alone: OVA (ovalbumin, Sigma-Aldrich), model antigen injected alone (protein, UniProt P01012 2-386, looked up)
Ovalbumin: GSIGAASMEFCFDVFKELKVHHANENIFYCPIAIMSALAMVYLGAKDSTRTQINKVVRFDKLPGFGDSIEAQCGTSVNVHSSLRDILNQITKPNDVYSFSLASRLYAEERYPILPEYLQCVKELYRGGLEPINFQTAADQARELINSWVESQTNGIIRNVLQPSSVDSQTAMVLVNAIVFKGLWEKAFKDEDTQAMPFRVTEQESKPVQMMYQIGLFRVASMASEKMKILELPFASGTMSMLVLLPDEVSGLEQLESIINFEKLTEWTSSNVMEERKIKVYLPRMKMEEKYNLTSVLMAMGITDVFSSSANLSGISSAESLKISQAVHAAHAEINEAGREVVGSAEAGVDAASVSEEFRADHPFLFCIKHIATNAVLFFGRCVSP
[1]
  time OVA remained in the nasal cavity (SPECT/CT): ≤ 6 h
[2]
  time OVA remained in the nasal cavity (immunohistofluorescence): ~1 h
